Assay results reported in the supplement of paper PMC5998384.

Assays:
HeLa Kyoto [1] = experiment: melting temperature (median over replicates), in situ; higher = more thermally stable
HeLa Kyoto [2] = experiment: thermal stability score vs G1/S (z-score of summed log2 fold changes over temperatures); higher = more thermally stable than in G1/S
HeLa Kyoto [3] = experiment: solubility in G1/S (NP-40 vs SDS abundance) (log2 ratio); higher = more soluble; settings: cell cycle stage: G1/S
HeLa Kyoto [4] = experiment: solubility change mitosis vs G1/S (difference of NP-40 vs SDS log2 ratios) (log2 ratio difference); higher = more soluble in mitosis
[5] = cell cycle stage: early G1 (4.5 h after nocodazole release)
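For melting temperature (median over replicates), in situ in this document: HeLa Kyoto cells synchronized by double thymidine or nocodazole block, proteins quantified by TMT10plex mass spectrometry, three independent biological replicates.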
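For solubility change mitosis vs G1/S (difference of NP-40 vs SDS log2 ratios) in this document: synchronized HeLa Kyoto cells (double thymidine block for G1/S, nocodazole release for mitosis), protein amounts in NP-40 versus SDS lysates quantified by mass spectrometry, three biological replicates.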
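For solubility in G1/S (NP-40 vs SDS abundance) in this document: HeLa Kyoto cells arrested at G1/S by double thymidine block, proteins quantified by TMT10plex mass spectrometry in mild NP-40 versus SDS extracts, three biological replicates.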
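For thermal stability score vs G1/S (z-score of summed log2 fold changes over temperatures) in this document: synchronized HeLa Kyoto cells, proteins quantified by TMT10plex mass spectrometry, three biological replicates, mitosis taken 0.5 h after nocodazole release, G1/S directly after double thymidine block.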

Sequence | melting temperature (HeLa Kyoto [1]; cell cycle stage: G1/S) [°C] | melting temperature (HeLa Kyoto [1]; cell cycle stage: mitosis) [°C] | thermal stability score (HeLa Kyoto [2]; [5]) | thermal stability score (HeLa Kyoto [2]; cell cycle stage: mitosis) | solubility in G1/S (log2) (HeLa Kyoto [3]) | solubility change mitosis (log2) (HeLa Kyoto [4])
MLSSCVRPVPTTVRFVDSLICNSSRSFMDLKALLSSLNDFASLSFAESWDNVGLLVEPSPPHTVNTLFLTNDLTEEVMEEVLQKKADLILSYHPPIFRPMKRITWNTWKERLVIRALENRVGIYSPHTAYDAAPQGVNNWLAKGLGACTSRPIHPSKAPNYPTEGNHRVEFNVNYTQDLDKVMSAVKGIDGVSVTSFSARTGNEEQTRINLNCTQKALMQVVDFLSRNKQLYQKTEILSLEKPLLLHTGMGRLCTLDESVSLATMIDRIKRHLKLSHIRLALGVGRTLESQVKVVALCAGSGSSVLQGVEADLYLTGEMSHHDTLDAASQGINVILCEHSNTERGFLSDLRDMLDSHLENKINIILSETDRDPLQVV [NIF3L1] | 60.8 | 60.7 | -0.711 | -0.332 | 0.187 | -0.161
MLSVRVAAAVVRALPRRAGLVSRNALGSSFIAARNFHASNTHLQKTGTAEMSSILEERILGADTSVDLEETGRVLSIGDGIARVHGLRNVQAEEMVEFSSGLKGMSLNLEPDNVGVVVFGNDKLIKEGDIVKRTGAIVDVPVGEELLGRVVDALGNAIDGKGPIGSKTRRRVGLKAPGIIPRISVREPMQTGIKAVDSLVPIGRGQRELIIGDRQTGKTSIAIDTIINQKRFNDGSDEKKKLYCIYVAIGQKRSTVAQLVKRLTDADAMKYTIVVSATASDAAPLQYLAPYSGCSMGEYFRDNGKHALIIYDDLSKQAVAYRQMSLLLRRPPGREAYPGDVFYLHSRLLERAAKMNDAFGGGSLTALPVIETQAGDVSAYIPTNVISITDGQIFLETELFYKGIRPAINVGLSVSRVGSAAQTRAMKQVAGTMKLELAQYREVAAFAQFGSDLDAATQQLLSRGVRLTELLKQGQYSPMAIEEQVAVIYAGVRGYLDKLEPSKITKFENAFLSHVVSQHQALLGTIRADGKISEQSDAKLKEIVTNFLAGFEA [ATP5A1] | 59.9 | 58.9 | -1.58 | -1.35 | 0.231 | -0.0479
MLTLQTWLVQALFIFLTTESTGELLDPCGYISPESPVVQLHSNFTAVCVLKEKCMDYFHVNANYIVWKTNHFTIPKEQYTIINRTASSVTFTDIASLNIQLTCNILTFGQLEQNVYGITIISGLPPEKPKNLSCIVNEGKKMRCEWDGGRETHLETNFTLKSEWATHKFADCKAKRDTPTSCTVDYSTVYFVNIEVWVEAENALGKVTSDHINFDPVYKVKPNPPHNLSVINSEELSSILKLTWTNPSIKSVIILKYNIQYRTKDASTWSQIPPEDTASTRSSFTVQDLKPFTEYVFRIRCMKEDGKGYWSDWSEEASGITYEDRPSKAPSFWYKIDPSHTQGYRTVQLVWKTLPPFEANGKILDYEVTLTRWKSHLQNYTVNATKLTVNLTNDRYLATLTVRNLVGKSDAAVLTIPACDFQATHPVMDLKAFPKDNMLWVEWTTPRESVKKYILEWCVLSDKAPCITDWQQEDGTVHRTYLRGNLAESKCYLITVTPVYADGPGSPESIKAYLKQAPPSKGPTVRTKKVGKNEAVLEWDQLPVDVQNGFIRNYTIFYRTIIGNETAVNVDSSHTEYTLSSLTSDTLYMVRMAAYTDEGGKDGPEFTFTTPKFAQGEIEAIVVPVCLAFLLTTLLGVLFCFNKRDLIKKHIWPNVPDPSKSHIAQWSPHTPPRHNFNSKDQMYSDGNFTDVSVVEIEANDKKPFPEDLKSLDLFKKEKINTEGHSSGIGGSSCMSSSRPSISSSDENESSQNTSSTVQYSTVVHSGYRHQVPSVQVFSRSESTQPLLDSEERPEDLQLVDHVDGGDGILPRQQYFKQNCSQHESSPDISHFERSKQVSSVNEEDFVRLKQQISDHISQSCGSGQMKMFQEVSAADAFGPGTEGQVERFETVGMEAATDEGMPKSYLPQTVRQGGYMPQ [IL6ST] | 53.9 | 56.2 | -2.55 | -3.18 | 0.0822 | 0.0736
MLTTLKPFGSVSVESKMNNKAGSFFWNLRQFSTLVSTSRTMRLCCLGLCKPKIVHSNWNILNNFHNRMQSTDIIRYLFQDAFIFKSDVGFQTKGISTLTALRIERLLYAKRLFFDSKQSLVPVDKSDDELKKVNLNHEVSNEDVLTKETKPNRISSRKLSEECNSLSDVLDAFSKAPTFPSSNYFTAMWTIAKRLSDDQKRFEKRLMFSHPAFNQLCEHMMREAKIMQYKYLLFSLHAIVKLGIPQNTILVQTLLRVTQERINECDEICLSVLSTVLEAMEPCKNVHVLRTGFRILVDQQVWKIEDVFTLQVVMKCIGKDAPIALKRKLEMKALRELDRFSVLNSQHMFEVLAAMNHRSLILLDECSKVVLDNIHGCPLRIMINILQSCKDLQYHNLDLFKGLADYVAATFDIWKFRKVLFILILFENLGFRPVGLMDLFMKRIVEDPESLNMKNILSILHTYSSLNHVYKCQNKEQFVEVMASALTGYLHTISSENLLDAVYSFCLMNYFPLAPFNQLLQKDIISELLTSDDMKNAYKLHTLDTCLKLDDTVYLRDIALSLPQLPRELPSSHTNAKVAEVLSSLLGGEGHFSKDVHLPHNYHIDFEIRMDTNRNQVLPLSDVDTTSATDIQRVAVLCVSRSAYCLGSSHPRGFLAMKMRHLNAMGFHVILVNNWEMDKLEMEDAVTFLKTKIYSVEALPVAAVNVQSTQ [FASTKD2] | 51.8 | 51.1 | 0.322 | 0.825 | -0.17 | -0.134
MLVPLAKLSCLAYQCFHALKIKKNYLPLCATRWSSTSTVPRITTHYTIYPRDKDKRWEGVNMERFAEEADVVIVGAGPAGLSAAVRLKQLAVAHEKDIRVCLVEKAAQIGAHTLSGACLDPGAFKELFPDWKEKGAPLNTPVTEDRFGILTEKYRIPVPILPGLPMNNHGNYIVRLGHLVSWMGEQAEALGVEVYPGYAAAEVLFHDDGSVKGIATNDVGIQKDGAPKATFERGLELHAKVTIFAEGCHGHLAKQLYKKFDLRANCEPQTYGIGLKELWVIDEKNWKPGRVDHTVGWPLDRHTYGGSFLYHLNEGEPLVALGLVVGLDYQNPYLSPFREFQRWKHHPSIRPTLEGGKRIAYGARALNEGGFQSIPKLTFPGGLLIGCSPGFMNVPKIKGTHTAMKSGILAAESIFNQLTSENLQSKTIGLHVTEYEDNLKNSWVWKELYSVRNIRPSCHGVLGVYGGMIYTGIFYWILRGMEPWTLKHKGSDFERLKPAKDCTPIEYPKPDGQISFDLLSSVALSGTNHEHDQPAHLTLRDDSIPVNRNLSIYDGPEQRFCPAGVYEFVPVEQGDGFRLQINAQNCVHCKTCDIKDPSQNINWVVPEGGGGPAYNGM [ETFDH] | 54.4 | 53.8 | -0.885 | -1.65 | 0.107 | -0.184
